# Measured values published in a protein production outcome set (Wang et al. 2014).
# Assay: label from the status in PepcDB records
row,Sequence,protein production
1,MHQLWTYDPAAGTVEVGAGTTNEGLVDGPGEEAWFAQPSGLAATADRLWLADSETSALRWVDLDGAVHTAVGTGLFDFGHRDGDAEQALLQHPLGVTALPDGSVAVSDTYNHALRRYDPATGEVTTLATDLREPSDAVLVGDDIVVVESARHRLTRLRLPEEAVRVASVAHRTQRAATEVAPGRLQLDVIFQAPAGQKLDTRYGPSTRLLVSSTPPELLLNGEGADPDLSRTLELNPAIPEGVLHVSAMAASCDDDPANEYPACHVHQQDWGVPVRLTEGGADRLPLVLAGMDALEHHHHHH,failed
2,MHQQTLWLFSGIALVLIIATLISETLRWRARERPSAVLDNLVARIRAWWVMAAVVGLAFVFGRAGVIGLFALVSLFALREFITLTPTRRGDYYALLAAFYVVLPWQYGLVWTGWYGLYTLLIPVYAFLVLPILATIGGDTTRYLERTAKVQWGLMICVFCISHVPALLNLDIPGYAGRNLLLIAFLVIVVQSSDVLQYVWGKLAGRHLIAPKLSPSKTVEGFIGGVVSASLLGMALWWITPFAPWHAFGLALVANLMGFFGGLVMSAIKRDRGIKDWGHMIEGHGGVLDRLDSVCFAAPVFFHLIRYGWA,failed
3,MHRFLSGPLSVEQLTVNIAGLSASLQGKKLVHLSDFHYDGLRLSEEMLAEAIAVSNQVQPDLVLLTGDYVTTTPQPIHQLAKRLQKLQSHAGIYAILGNHDLYQKNSKTEITQALTKAGIQVLWNEIAYPLGEELPIVGIVDYYYREFNPQLLFNQLEPTTPRIVLCHNPDTAAMLQGWRVDLQLSGHTHGGQIVIPGLGAVLPYHKKIVRRVPIKIRRLFPLFFKDYFIVRHAEWLQGLHRIGKNQLYVNRGLGTYLPGRLFCPPELTVITLEAE,failed
4,MHRLRNLREDVSDGSLGHGGGGLMYDVVVVGAGPAGSMAAKTAAEQGLKVLLVEKRQEIGTPVRCAEGISRESIEKFFEVDKKWIAAEVTGAKIYAPNKTEIVMSEEMAGNEVGYVLERKIFDRHVARLAAKAGAEVYVKTAMVDFERKDGKVKVKLRRLGEDWEVETKILIGADGVESKIGRKAGIIKTLKLNEVESCAQYLMTGLDIDESYTYFYLGRELAPGGYAWIFPKGNGSANVGIGVLPKMAERTAKEYLDAFIEKEGIEGKIVEFVAGAVPVYGEIETAVADNIMLAGDAAYHADPITGGGIANALSAGYYAGKVAAEAVQKNDFSADFLRRYDELWKNDFGKKLRRNKKLQLKFIDMDDALLNKLAGAIAGKNLREMSVAAIVKELLKAHPKLLWDLKDLFLEHHHHHH,not failed
5,MHRSTFIRTSGTSSRTLTARYRSQYTGLLVARVLFSTSTTRAQGGNPRSPLQIFRDTFKKEWEKSQELQENIKTLQDASGKLGESEAYKKAREAYLKAQRGSTIVGKTLKKTGETMEHIATKAWESELGKNTRKAAAATAKKLDESFEPVRQTKIYKEVSEVIDDGESSRYGGFITKEQRRLKRERDLASGKRHRAVKSNEDAGTAVVATNIESKESFGKKVEDFKEKTVVGRSIQSLKNKLWDESENPLIVVMRKITNKVGGFFAETESSRVYSQFKLMDPTFSNESFTRHLREYIVPEILEAYVKGDVKVLKKWFSEAPFNVYAAQQKIFKEQDVYADGRILDIRGVEIVSAKLLAPQDIPVLVVGCRAQEINLYRKKKTGEIAAGDEANILMSSYAMVFTRDPEQIDDDETEGWKILEFVRGGSRQFT,failed
6,MHRVGSAGSNGGSVRTRKEKKLTYVLNDANDTKHCAGINCLDVLKSSVSNDQSYLFTGSRDGTLKRWAFDEDATFCSATFESHVDWVNDAALAGESTLVSCSSDTTVKTWDGLSDGVCTRTLRQHSDYVTCLAVAAKNNNVVASGGLGGEVFIWDIEAALSPVTKPNDANEDSSSNGANGPVTSLRTVGSSNNISVQSSPSHGYTPTIAKGHKESVYALAMNDTGTMLVSGGTEKVLRVWDPRTGSKSMKLRGHTDNVRVLLLDSTGRFCLSGSSDSMIRLWDLGQQRCLHTYAVHTDSVWALACNPSFSHVYSGGRDQCLYLTDLATRESVLLCTKEHPIQQLALQDNSIWVATTDSSVERWPAEVQSPKTVFQRGGSFLAGNLSFNRARVSLEGLNPAPAYKEPSITVPGTHPIVQHEILNNKRQILTKDAAGSVKLWDITRGVVVEDYGKISFEEKKEELFEMVSIPSWFTVDTRLGCLSVHLETPQCFSAEMYSADLKVSGRPEDDKINLARETLKGLLGHWLAKKKHKPKPQVLASGDTLSVKDTKKNLSASKTEESSAASDPVYPPFEFSSVSPPSIITEGSQGGPWRKKITEFTGTEDEKDFPLWCLDAVLNNRLPPRENTKLSFFLHPCEGSSVQVVTLGKLSAPRILRVHKVTNYVVEKMVLDNPLDSLAIDAASVSGGQPQPLFSGNGLLQSGLKPWQKLRPSIEILCNSQVLSPDMSLATVRAYVWKKPEDLILNYRVAIAR,failed
7,MHSATIIIGIVCGWIFILTTVQFLYLLIIKRDLQPTGWCSFMEKDYLGISSTVLVSLLFGLALVLVNSWFNQPTVEEVVPRSTYLMVMIALFFIDTVAFIFMQLYFIYDRRQFSNCILSLAFLSCLIYFIKTVIIIQQIIEGRLTSSVVQNDIAIYYLFRQMSLCILIFLALVNKVSENTKQRNLFSKKMTLCISLFFVVGGPIVAHILSSHYESYNLHIAELTNENDQVVWKASYVTIMIFMWLTLLSVNLYFNGLRCDIWNGVTVIAFCAVLYNVSLLFMSRYSVSIWYISRTIEVVSKLTVMVIFMCHIFSALRVTKDIAHRDSLTNIFNRNYFFNELTVQSASAKKTPYCVMIMDIDHFKKVNDTWGHPVGDQVIKTVVSIIGKSIRPDDLFARVGGEEFGVLLTDIDTERAKALAERIRENVERLTGDNPEYAIPQKVTISIGAVVTQKNELNPKEIYQLADNALYEAKETGRNKVVVKEAEILINRKDDE,failed
8,MHSDSGSDSGSDSGSGSPMVSSIHPSEPIQPMEHVLEEADARLLTEVGFLAAAVSDLTRADAIFNALQRVRPGRTHPCIGLAVARMNAGLPDEAAEILANFQPAQPEDRSELDAWCGFALLLAGRSDEARRMLQRAIDAGGEAARLAQVVLDSGPAMMRPAPLQSEPLPGAPG,failed
9,MHSEHGRQNVKVELKGVHRVRRKLASGETAVYHYAWRGGPRIDAAPGSAEFVAAYNAAHAARDRPVHHDGTLQALITAYQKTPAFTDLAEATRKGYIRHIRQIEADFGDMPVQALADPRVRGEFLDWRDRLAQKSKRSADYAFSVLARILSWAHDRRKIPVNPCEKPGRLYTGSRADSIWTEAQIAAFLAVAPRPVRLPFLLAIWTGQRQADILQLTWTAYDGQAIRLRQSKTGRHMLIPVAQPLREAMEEAKARRRTLTICETSRGQPWTSDGFKTSFGKAQASAGIEGVTFHDLRGTAVTFLALAGCSVPEIAALTGHSLKDAEGILSKHYLGRDRRLGESAVAKLEKHGVGTPTVKRAVKRRGPEGGDSV,failed
10,MHSEMTVPGFETRLAKVQDVWRDNRCLKSSSIGQYLYWIHRFHHYCIAEALDADEQLTQAGVSLFAQWYARQRRVDAECACQGAQSALRAWALGLSTLGVEIPPWQCDTDRTSESEPRLQDFAEHLRQHRGNPEATIKKKLAHIRCFLAFIAARHRPLRHLKLTDIDAFLVDCSQRYARTTTADIGSSLRGYVRFLLVTGQVTADLAPSIVTPIVRHYEQPLRALPWDDVRHILAAIDRSSPIGLRDYALLLLMSTYGLGAGEVIRLTLDDIDWQAATLRVVRPKTGVAFVLPLLPALAQALADYLKHGRPRRAPSRHVFQSMRAPHYPLSESSAIRHILVGHARKAGVTAAYLGSHVLRHTHACRQVEQEISPKVLSDILGHRSPESLSAYVRIATERLRQLPLPVPE,failed
11,MHSGLDNSAELRVSDFDPITLAGGTRTEVLPGAIQPHAALLALAPADLTIVHAAGATASLLGAAAELLPGTAASTAFSSDQIARLQALATAERWIERPQHAFTLNAPDATPIDVIVHHASGLLVVELDPRREPAPENSLALVQSMIRRARPAPNLQGFCDAMAAELRSVTGFDRVMVYRFARDGSADVIAEARGPETSPFLGLRDPQPDISNQPGSISRIRVQPDVHAPAAPLWPAHSPRNGLALDLSFSATRSASPEHRLYLAQLGVAASLSLSLVVEGELWGLIVCHHATPRFLPYRMREACALFAEMASLQLETRLAADQLAARLRSTRIHEELVTRMSQESDLAEGLIRFYPNLLDFIPAAGVGLWIDGQFTGIGATPGPAQVAAMMGWLHGVPHDGVYHTDCLALAYPPAKAFAGCASGLLALSLSNTPHNYVLWFRPEVVRVVTWAGMPNKPVGVDAGAPRTPKGCASSWQESVRLHGEPWLDTDVDAAHRLRESLLDVVLRRIDGIARERRSAQLLQEQLMRQVELGLSRSKDVAKTLQEEKRRRVLVEADLSKVLRRTVEDQEAERLRIARELHDTLGQSLTLLQLGFDKLGQAAGDNPELQQRIAEMKSLTADVGRQANRLAWEIRPTALDDLGIQTAIQNLLDSWSEKSSIEFDLHMTLGSRRLPSPVETTLYRVLQEALTNVVRHASARHVSVILQLGDDQVTMIVEDDGCGFVTAGRKPPSGRLGLLGIRERLSLVGGSLEIESAPGKGTALYARIPL,failed
12,MHSQASNPSATPEPETPNAAGGKRSVFAVILGNAVEFFDFGVYATFAVMIGHTFFPSDSAFVSLMLSVTAFGVGFIVRPLGAVLIGAYADRVGRKPAMLLTLVMMAVGTGSIAILPSYESIGIAAPILLVLTRLIQGLAWGGEAGPATTYILEAAPAHKRGTYACWQVVAQGVAAMAAGTVGYTLTQVLSPEDLNSWGWRVPFVFGLLVLPIGIYIRRNLAETFHGQGETASTGSLVRQVFGEHRRALVLGLLILSGSTITQYFINYMTTFALTELKLPTSISMLSTLVAGAAMAVCAIAGGMLCDRFGRRTILMAPRVVLLLVLFPALQLMTEHPSPTTFLLTLAVLSGLHGMSGAALIVLLVESFPKAVRSTGFSIVYAFGVAAFGGTAQIIITWLIGTTGNPMSPVGYLLVANLVCLTAAWFAKETRPQAPGRSNPGQRLAEARAR,failed
13,MHSSSRASFTTRGDIRRQVEGFSASGERNKDTVVDLSTFFAERGYSNNQAPTKYWEEKLVTIGNVVVPKWVPVKERNSSNKQKEGEDEVFIGFEAIYYPEQPPERQPITLYQEENKVEEEEQSRE,not failed
14,MHSVPSTGFPQSEFSGPFWTGRGVACARPNRYVWTARPSDQSSRRMSTSFSRRLRRLQSQKETALCVGLDPVPARFPPSLQDGRLRTDAVRAFCTTIVEATAPYACAFKPNFAFFEALGPAGLTVLDQVVTTIPDDCLVLGDAKRGDIGHSARHYAASIYEELGLDACTVSPYLGRDSVMPFLEHEGTCTFVLARTSNDGAADLQEACTCDGTPLYRHVARRVQAWNADAPGGAGLVVGATAPAALQDLRSLCPSLPFLVPGVGAQGGDAAAVMDAAATDEGPVLVNSSRSILYASEGPNYANAAADAARALRDALNGGASSSRGAPSPPALEHHHHHH,failed
15,MHTFKIDCQLHYRVIQMTEFVFQFEVAEHPWQTLIHESFQFKPDLAFEQYERDAGLNRLIRVNAPEGDLSVSYTAKVQTHIPERNTSLKECEIKDLPSDTLFYLAPSRFCESDLIDTMVTNTFAELPKGYSRVQAICDWIHDNIIYQSGSSDSTTTARDILVNRAGVCRDFAHLGIAICRALNIPARFVFGYMPFYQAQPDFHAIFEVYLENQWMLFDATRMGPIDQFVRVGTGLDAKDVPFATVYGEIELISMSPVIELV,failed
16,MHTNWQVCSLVVQAKSERISDISTQLNAFPGCEVAVSDAPSGQLIVVVEAEDSETLIQTIESVRNVEGVLAVSLVYHQQEEQGEETP,not failed
17,MHTQEALFVRLALDAWNTQSSRTDKLIQSLSNEALAVETAPGRNSGTYLLGHLTAVHDAMLPLLELGDTLYPQLAPVFIQNPDKSGLEKPEINDLRLYWSLVQERLANQFNQLQPADWFNKHAAISREDFLKEPHRNKLSVLINRTNHMAYHLGQLAYLKK,not failed
18,MHVFYSEERRGNLLILREGEVKHFRVRRIEKDEEFGVIHEGKIYVCKVRREDKREISCEIVEELETKLPPKDITLYQSVTVDLKTMDTIVRQATELGVLTFVPIISERSFQKEEAILKKTEKWKRIVIEAMKQSRRPIPMEIKKPVRLSDLIPESEENIILDNFYEGVKPKDVNLEAKTYSVVVGPEGGFSKRESQILREKGFKSVLLEPYTLRTETAVVSIVSILMNF,not failed
